Data on three molecules can be found in patent US20200062856A1 (XDCEXPLORER SHANGHAI, published 2020).

Positions count from the first letter of the chain named.

The labels stand for the following.
T1: cynomolgus TPBG protein, full-length, on the cell surface (cynomolgus, UniProt Q4R8Y9 35-420)
T1 construct: whole, on cells; also called cTPBG; CHOk1-cTPBG
T1 sequence (looked up): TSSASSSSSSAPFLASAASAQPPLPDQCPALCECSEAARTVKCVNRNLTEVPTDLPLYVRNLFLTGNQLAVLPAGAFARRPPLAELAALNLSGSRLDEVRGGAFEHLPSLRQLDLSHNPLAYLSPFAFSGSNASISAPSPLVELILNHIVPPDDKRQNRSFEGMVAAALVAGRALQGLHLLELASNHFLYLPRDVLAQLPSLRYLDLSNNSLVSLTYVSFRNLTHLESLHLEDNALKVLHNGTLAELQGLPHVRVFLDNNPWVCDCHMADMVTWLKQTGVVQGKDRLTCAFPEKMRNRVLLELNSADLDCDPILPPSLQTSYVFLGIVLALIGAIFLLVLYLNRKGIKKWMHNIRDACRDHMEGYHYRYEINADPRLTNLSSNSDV

T2: human TPBG protein, full-length, on the cell surface (human, UniProt Q13641 32-420)
T2 construct: whole, on cells; Transfected HEK293 (293F-hTPBG clones) and CHO-k1 (CHOk1-hTPBG 3A2F1) cells; also used here for endogenous TPBG on the TPBG-positive tumour lines NCI-H1568, NCI-H1975 and MDA-MB-468 in the killing assays; also called hTPBG; 5T4
T2 sequence (looked up): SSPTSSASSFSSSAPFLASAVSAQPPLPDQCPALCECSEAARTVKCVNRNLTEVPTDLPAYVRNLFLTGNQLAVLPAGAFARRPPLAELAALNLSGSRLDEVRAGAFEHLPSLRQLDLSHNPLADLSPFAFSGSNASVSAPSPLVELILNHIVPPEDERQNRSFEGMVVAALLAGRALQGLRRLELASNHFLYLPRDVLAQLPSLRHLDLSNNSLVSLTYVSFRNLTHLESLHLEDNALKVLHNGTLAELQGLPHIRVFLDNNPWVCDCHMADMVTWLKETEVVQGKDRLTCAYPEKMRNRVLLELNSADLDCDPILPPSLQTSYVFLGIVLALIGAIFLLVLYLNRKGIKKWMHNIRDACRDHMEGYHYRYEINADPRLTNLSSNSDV

T3: human TPBG-hFc protein (human, UniProt Q13641 32-355)
T3 construct: range 32-355; Expressed in HEK293 cells, purified on protein A; also called immunogen A; hFc tagged TPBG protein; not shown: human IgG Fc fragment of the pCpC vector
T3 sequence (looked up): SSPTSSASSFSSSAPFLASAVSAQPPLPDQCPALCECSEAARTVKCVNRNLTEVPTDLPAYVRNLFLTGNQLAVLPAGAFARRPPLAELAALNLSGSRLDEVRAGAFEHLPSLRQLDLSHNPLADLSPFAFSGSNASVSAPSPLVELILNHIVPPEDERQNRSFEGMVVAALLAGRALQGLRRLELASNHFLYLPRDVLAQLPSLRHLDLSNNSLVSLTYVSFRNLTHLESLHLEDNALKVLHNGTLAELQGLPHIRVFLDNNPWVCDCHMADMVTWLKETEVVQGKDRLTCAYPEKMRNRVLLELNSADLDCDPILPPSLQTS

T4: human TPBG antigen immobilized on a CM5 chip (human, UniProt Q13641 32-355, limits assumed)
T4 sequence (looked up): T3 sequence (looked up)

T5: mouse TPBG protein, full-length, on the cell surface (mouse, UniProt Q9Z0L0 32-426)
T5 construct: whole, on cells; also called mTPBG; CHOk1-mTPBG
T5 sequence (looked up): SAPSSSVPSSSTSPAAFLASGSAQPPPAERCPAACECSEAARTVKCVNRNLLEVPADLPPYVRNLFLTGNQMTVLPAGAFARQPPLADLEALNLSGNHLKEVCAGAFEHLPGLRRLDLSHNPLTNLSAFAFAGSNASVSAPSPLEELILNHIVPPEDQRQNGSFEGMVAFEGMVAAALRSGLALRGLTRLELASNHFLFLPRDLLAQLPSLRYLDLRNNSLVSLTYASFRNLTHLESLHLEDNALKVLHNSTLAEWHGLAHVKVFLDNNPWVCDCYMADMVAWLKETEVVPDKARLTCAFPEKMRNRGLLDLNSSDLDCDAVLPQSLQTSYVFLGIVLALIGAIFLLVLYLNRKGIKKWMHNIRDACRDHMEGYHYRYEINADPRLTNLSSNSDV

B1: Chimeric antibody 12B12 (antibody, V domains shown)
VH: DVQLVESGGGLVQPGGSRKLSCAASGFTFSNFGMHWVRQAPEKGLEWVAYISSGSTSFYYADTVKGRFTISRDNPKNTLFLQMTSLRSEDTAMYYCSRTNSLLRGFFDAWGAGTTVTVSS
VL: DIVLTQSPASLAVSLGQRATISCRASQSVSSSSYTYLHWYQQKPGQPPKLLIKSASNLESGVPARFSGTGSGTDFTLNIHPVEEEDTATYYCQHSWEIPLTFGAGTKLELK
notes: Mouse variable domains on human IgG1 heavy and human kappa light constant regions; also called c12B12; TPBG chimeric antibody 12B12
B2: Humanized antibody 12B12-12 (antibody, V domains shown)
VH: EVQLVESGGGLVQPGGSLRLSCAASGFTFSNFGMHWVRQAPGKGLEWVSYISSGSTSFYYADTVKGRFTISRDNAKNSLYLQMNSLRDEDTAVYYCARTNSLLRGFFDAWGQGTTVTVSS
VL: DIVLTQTPLSLSVTPGQPASISCRASQSVSSSSYTYLHWYLQKPGQPPQLLIKSASNLESGVPDRFSGSGSGTDFTLKISRVEAEDVGVYYCQHSWEIPLTFGQGTKLEIK
notes: also called h12B12-12
B3: Humanized antibody 12B12-15 (antibody, V domains shown)
VH: B2 VH with L11V, G16R, S49A, A75S, S78T, D88A
VL: B2 VL
notes: also called h12B12-15

In one assay the target is T1, cynomolgus TPBG protein, full-length, …. As to the kind of experiment: FACS on CHOK1-cTPBG cells.
On to B1, for which the response was half-maximal at 670 pM (EC50).

Take B2: the EC50 came out at 10300 pM.

Molecule B3 returned an EC50 of 870 pM.

The target of the next assay is T2, human TPBG protein, full-length, on the …. As to the kind of experiment: FACS on CHOK1-hTPBG cells.
Consider B1, for which a half-maximal response (EC50) required 330 pM. That is a sub-nanomolar value.

For B2, a half-maximal response (EC50) required 330 pM.

Consider B3, for which it took 370 pM to reach a half-maximal effect (EC50).

Another assay has as its target T3, human TPBG-hFc protein. As to the kind of experiment: ELISA, coated human TPBG-hFc. The protocol:
The purified human TPBG-hFc obtained from step (1) diluting with PBS to a final concentration of 1.0 μg/mL was aliquoted into a 96-well ELISA plate at 100 μL per well, and sealed with a parafilm and incubated at 4° C. overnight. The plate was washed twice with plate washing buffer (PBS containing 0.01% (v/v) Tween 20), and blocked with blocking buffer (PBS containing 0.01% (v/v) Tween 20 and 1% (w/w) BSA) at room temperature for 2 h. The blocking buffer was discarded, and […] per well of the purified antibody TPBG was added. After incubating at 37° C. for 2 h, the plate was washed for three times with plate washing buffer (PBS containing 0.01% (v/v) Tween 20). HRP (horseradish peroxidase)-labeled secondary antibody (purchased from Sigma) was added and incubated at 37° C. for 2 h, and the plate was washed for three times using plate washing buffer (PBS containing 0.01% (v/v) Tween 20). 100 μL of TMB substrate was aliquoted into each well, incubated at room temperature for 30 min, and 100 μL of stop buffer (1.0 N HCl) per well was subsequently added. A_{450 nm} values were read using the ELISA plate reader (SpectraMax 384plus purchased from Molecular Device), and the results were shown in Table 5. […] In Table 5 the IgG control herein is a mice IgG control, the data in the Table are OD_{450 nm} values, and Blank represents the OD_{450 nm} value of PBS buffer in the plate.
The purified humanized TPBG antibody obtained from Embodiment 1 was reacted with human TPBG-hFc, for the method, see (5) Identification of lead antibody in Embodiment 1. The EC50 in Table 11 and Table 12 are calculated according to the OD450 nm value of the h12B12 variants and the h28D4 variants, respectively. […] FIGS. 7A and 7B are the binding reactions of purified humanized h12B12 variants to human TBPG-hFc protein, and FIGS. 8A and 8B are the binding reactions of the purified humanized h28D4 variants to human TBPG-hFc protein.
For the molecule B1, the EC50 is 137 pM.

Consider B2, for which the EC50 turned out to be 206 pM.

The molecule B3 showed an EC50 of 193 pM.

The target in the next assay is T4, human TPBG antigen immobilized on a CM5 …. In words: SPR (Biacore), human TPBG antigen immobilized on CM5 chip. As to the method: To assess the binding specificity and affinity of the humanized anti-TPBG antibody, Biacore analysis was performed using human TPBG antigen immobilized on a CM5 chip. Biacore technique utilizes the change in the refractive index of surface layer after antibody binding to the TPBG antigen immobilized on the surface layer. The binding was determined by surface plasmon resonance (SPR) through detecting the laser refracted from the surface. Non-specific and specific interactions were distinguished by analysis of signal kinetics binding rate and dissociation rate. Chimeric antibodies 12B12 and 28D4 were used as controls.
B1 yielded a Kd of 10.2 pM, a koff of 1.64e-05 s⁻¹ and a kon of 1.61e+06 M⁻¹ s⁻¹.

With B2, binding was characterised by a dissociation constant (Kd) of 18.6 pM, the koff amounted to 2.29e-05 s⁻¹ and the kon worked out at 1.23e+06 M⁻¹ s⁻¹.

In turn, B3 registered a Kd below 5.66 pM, a koff below 1e-05 s⁻¹ and a kon of 1.77e+06 M⁻¹ s⁻¹.

The target in a further assay is T5, mouse TPBG protein, full-length, on the …. As to the kind of experiment: FACS on CHO-k1 cells with surface-expressed mouse TPBG, fluorescent secondary antibody, mean fluorescence intensity.
For the molecule B1, the binding result is “no binding (tested: 100 nM)”.

B2: the binding result was “no binding (tested: 100 nM)”.

As to B3, the binding result is “no binding (tested: 100 nM)”.
